From publication PMC2660348

Experiments:
[1] = biological target: T1, Zur (FurB) (Mycobacterium smegmatis) (UniProt A0R0S1); assay: EMSA
T1 sequence: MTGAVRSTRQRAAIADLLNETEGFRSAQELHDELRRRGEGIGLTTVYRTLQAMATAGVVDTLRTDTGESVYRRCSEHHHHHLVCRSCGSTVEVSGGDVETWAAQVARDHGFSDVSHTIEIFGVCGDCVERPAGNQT

[2] = biological target: T2, IdeR (Mycobacterium smegmatis) (UniProt A0QVZ3); assay: EMSA
T2 sequence: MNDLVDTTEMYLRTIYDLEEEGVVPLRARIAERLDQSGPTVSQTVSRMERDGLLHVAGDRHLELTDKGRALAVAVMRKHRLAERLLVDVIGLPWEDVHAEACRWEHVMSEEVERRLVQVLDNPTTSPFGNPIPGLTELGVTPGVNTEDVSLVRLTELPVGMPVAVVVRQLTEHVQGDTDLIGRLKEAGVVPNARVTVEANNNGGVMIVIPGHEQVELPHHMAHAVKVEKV

“CGGGATCCCGCAACACCCTGGTCAGTGCCGCCCGCGTCTGACGGCGCACCGTTCGCGCTGCCGGCACCCCGGGCTCCATAATGAAAATCATGTTCAGTAAGCTACACTCTGCATATCGGGCTACCAACGAAATGGAGTATCGGTCATGATCTTGCCAGCCGTGCCTAAAAGCTTGGCCGCAGGGCCGAGTCGATTGGTCGCGGTCGCCTCGACAGTTAGCTTATGCAATGCTAACTTCGGGGCAAAGTTCAGGCGGATCGGCCGATGGCGGGCGTAGGTGAAGGAGACAGCGGGTACCCG (double strand) [rv0282 upstream region (pr1)]” was tested, and the binding [1] was “binds” and the binding [2] was “binds”.
